Test results as given in the supplement of paper PMC10567573.
± gives the standard deviation.

Test: protein stability index of a GFP-peptide fusion (GPS, HEK-293T) (PSI 1-6); higher = more stable
Details: c terminus: a fixed tail appended
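Further: 24-mer peptide tiles fused after GFP, lentivirally expressed, FACS-sorted into six equal bins by GFP/DsRed ratio, decoded by Illumina sequencing, PSI is the read-weighted mean bin number.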

Row | Sequence | protein stability index (treatment: DMSO) | protein stability index (treatment: MLN4924 1 uM, 8 h)
1 | HARLSDIWAKTPPITRKAAQLYTL [DHCR7] | 2.29 ± 0.22 | 2.3 ± 0.29
2 | SLMPLQKSISPWKSPPQLRQFLPE [DENND6A] | 2.72 ± 0.21 | 2.51 ± 0.52
3 | MKQRDNCKIRIQRQLEIMGKEVSG [STX11] | 3.27 ± 0.18 | 3.39 ± 0.33
4 | NDNSSDLLYDDLYDDDIDDEDEEE [UBE2R2] | 5.61 ± 0.41 | 5.63 ± 0.18
5 | VVRGGEVVHRSDEQQHYFNTPFQL [PPTC7] | 3.26 ± 0.47 | 3.43 ± 0.24
6 | GCCKRRYLQKIEEFAEMVEREEED [KCNG1] | 3.57 ± 0.23 | 4 ± 0.53
7 | DKITGQSLGYGFVNYSDPNDADKA [ELAVL3] | 4.81 ± 0.24 | 4.82 ± 0.15
8 | DLLCKTSHLSDTGISALVEIPKNC [WDR41] | 2.8 ± 0.23 | 2.78 ± 0.34
9 | LDISDSISESGGLNWKMTLCLLVA [SLC6A17] | 2.54 ± 0.48 | 2.5 ± 0.79
10 | YLSPRDFLSGLAFRVFHCTQYVRH [TPH1] | 2.31 ± 0.2 | 2.08 ± 0.17
11 | VMFKEPIEILPNVCYTACATLKGP [BTBD1] | 2.12 ± 0.22 | 2.14 ± 0.26
12 | LYRDVMLETFGHLLSIGPELPKPE [ZNF8] | 2.26 ± 0.27 | 2.56 ± 0.46
13 | WNMDKYTMIRKLEGHHHDVVACDF [WSB1] | 2.38 ± 0.19 | 2.58 ± 0.33
14 | ELEQQIWKERDEYITKVSEEVTRL [TRIM15] | 3.94 ± 0.21 | 3.95 ± 0.27
15 | QDQGYKTLRLRENCVLSSSPNPFP [ZNF8] | 3.25 ± 0.11 | 3.43 ± 0.22
16 | IFFMAAFAFSNGYLASLCMCFGPK [SLC29A1] | 2.42 ± 0.38 | 2.52 ± 0.34
17 | LIILWKNGERESGLRSLRLFQKLE [WDR41] | 2.15 ± 0.26 | 2.5 ± 0.49
18 | ILQSPAFCEELESMIQEQFKKGKN [ADD1] | 3.53 ± 0.16 | 3.76 ± 0.17
19 | STESDKPTTGRVYESDSSNHCMLS [C18orf25] | 4.88 ± 0.2 | 4.89 ± 0.32
20 | KDTRMAEEYCHKHYDRNKDGNKDV [VPS39] | 4.68 ± 0.21 | 5.03 ± 0.23
21 | GGSSAVGQFVSLDGAGKTPTLGGG [BRF1] | 4.34 ± 0.49 | 4.82 ± 0.33
22 | QRRASTVSSVTQVEVDENAYRCGS [NET1] | 5.01 ± 0.45 | 5.02 ± 0.2
23 | DTCRTQLVWLVRELVKSGVLGADG [INTS3] | 2.51 ± 0.54 | 2.37 ± 0.24

Row | Sequence | protein stability index (treatment: DMSO) | protein stability index (treatment: MLN4924 1 uM, 8 h)
24 | LGLSKLARIVEIYSRRLQVQERLT [GCH1] | 2.71 ± 0.65 | 2.2 ± 0.41
25 | IVVIPGKVEEVSLPEQVDIIISEP [CARM1] | 2.47 ± 0.45 | 2.16 ± 0.29
26 | SSGKVLPKWGWEQLEVTCTPYLKE [POMT2] | 2.64 ± 0.33 | 2.67 ± 0.33
27 | IEDTPLVPVSFIFIFTFVKKKKIG [PCDHGA10] | 2.29 ± 0.55 | 3.12 ± 0.37
28 | LRRGHPAGGEENMTETDAFYKREM [CASP6] | 4.9 ± 0.2 | 4.43 ± 0.84
29 | PDTGDNARLTYSIVGNQVQGAPAS [PCDHGC5] | 4.42 ± 0.37 | 4.52 ± 0.52
30 | PRNADKIRVKIADLGNACWVHKHF [SRPK2] | 2.26 ± 0.12 | 2.42 ± 1.3
31 | LAGTQLLYAFFTRTHGDMHSLVRS [TRIB3] | 3.13 ± 0.38 | 3.05 ± 0.35
32 | RRLKTTRLKEYTIKSHSSLPPNNS [DAPK3] | 3.44 ± 0.3 | 3.61 ± 0.28
33 | KNLYKLASQCCGVHVISLHIWELS [PTGFR] | 2.97 ± 0.15 | 3.06 ± 0.48
34 | KMKFVIGNGKNLVDFTFVENVVHG [NSDHL] | 2.24 ± 0.19 | 2.24 ± 0.47
35 | CVDATRETNRLGRLINHSKCGNCQ [KMT5A] | 3.48 ± 0.41 | 3.84 ± 0.27
36 | ALVSHPEVPLISFTGSQPTAERIT [ALDH8A1] | 3.87 ± 0.2 | 3.87 ± 0.31
37 | ISKSLELCNEISLSEIKDAPKVNA [DLC1] | 4.12 ± 0.39 | 4.21 ± 0.066
38 | CSKSYSRRSFLIEHQRSHTGERPH [ZSCAN9] | 3.42 ± 0.073 | 3.52 ± 0.36
39 | NRQSSDKQNGRVAKVKGHRSQKHK [C18orf25] | 4.67 ± 0.18 | 4.55 ± 0.17
40 | QMPQGNPLLLSHTLQELLARDTVQ [SNX8] | 3.23 ± 0.086 | 3.15 ± 0.27
41 | RGFFFSHVGWLLVRKHPAVKEKGS [SCD] | 2.31 ± 0.6 | 2.5 ± 0.17
42 | VPEKRDSGMTEVERTYSANCSDFL [SPATS1] | 4.7 ± 0.17 | 4.89 ± 0.14
43 | TYWEHWTSQGQVRMRLFGQRCQKC [RTP4] | 2.33 ± 0.43 | 2.72 ± 0.57
44 | SAAAATAELLKKQEELNRKAEELD [SCAMP3] | 5.72 ± 0.16 | 5.52 ± 0.48
45 | KQIAGGDVTAKNIWLAESVLDILT [INTS3] | 2.2 ± 0.064 | 2.13 ± 0.26
46 | YQNELHKFLIWDTAGQERFRALAP [RAB22A] | 2.29 ± 0.045 | 2.46 ± 0.37

Row | Sequence | protein stability index (treatment: DMSO) | protein stability index (treatment: MLN4924 1 uM, 8 h)
47 | QLQRSWVKMDQKSKHLKEMYQELM [TRIM43] | 2.36 ± 0.4 | 2.55 ± 0.75
48 | LLHNDEYQETMVESTFMYLTLDLP [USP39] | 2.31 ± 0.29 | 2.29 ± 0.34
49 | DLDFKHHNYKEMRQLMKVVNEMCP [CPXM2] | 2.93 ± 0.21 | 2.66 ± 0.31
50 | GSYTVQSELGDYDPDECGSDYISE [EPB41L3] | 4.83 ± 0.48 | 5.2 ± 0.22
51 | REAMLEMLLQHQICKEVQAEQEPT [SPAG8] | 4.1 ± 0.25 | 4.15 ± 0.39
52 | LHKIYLCQSGYFSSMFSGSWKESS [GMCL1] | 2.26 ± 0.82 | 2.18 ± 0.37
53 | SKAFLLQTVDGKHQDLKYISPETM [CDC25B] | 3.22 ± 0.098 | 3.37 ± 0.29
54 | KPLFCGNSEADQLGKIFDLIGLPP [CDK4] | 2.62 ± 0.15 | 2.71 ± 0.28
55 | KYTPSNKHGFSWAVPKFMKRIKVP [DLC1] | 2.49 ± 0.36 | 2.6 ± 0.44
56 | LFTIPLLYRQHQAQIDQYVGLVTN [RTN2] | 2.81 ± 0.57 | 2.95 ± 0.48
57 | ASTPAQTAAGGQGGPGGPGSDKQQ [NR2F2] | 5.58 ± 0.26 | 5.59 ± 0.3
58 | VEVISDTLSKPSPMPVSQECFETL [CHGA] | 3.85 ± 0.092 | 3.87 ± 0.25
59 | LSGVSQLLPKSRENYLNRCMDQER [FCHO1] | 3.78 ± 0.21 | 3.95 ± 0.14
60 | KATEPTETVQTWIELLTGETWNPF [GOLPH3L] | 2.36 ± 0.13 | 2.5 ± 0.34
61 | ISGGVHNGEYVPWLYCYDPVMDVW [KLHL14] | 2.32 ± 0.33 | 2.59 ± 0.73
62 | IHSCFSDVTCFLLPHPGLQVATSP [ATL3] | 2.34 ± 0.7 | 2.29 ± 0.49
63 | MSREPTPPLPGDMSTGPIAESWCY [SPOPL] | 3.29 ± 0.32 | 3.37 ± 0.47
64 | TTKGTSEMSEKRGPTSSNPRKRHR [MLH1] | 5.14 ± 0.41 | 5.04 ± 0.079
65 | ARDVQKIIGDYFSDQDPRVRTAAI [INTS4] | 3.03 ± 0.29 | 3.15 ± 0.21
66 | YFTDLFDYLPLTALVDGQIFCLHG [PPP2CA] | 3.22 ± 0.39 | 2.91 ± 0.3
67 | DGKLLWEQELYNNFVYNSPRGYFH [WASL] | 2.07 ± 0.24 | 2.27 ± 0.41
68 | LLGALVLLGLGVLLFSGGLSESET [PBXIP1] | 2.29 ± 0.77 | 2.47 ± 0.89
69 | KSRRKAALSSPRSRKNATQPPNAE [INTS3] | 5.08 ± 0.33 | 4.98 ± 0.39

Row | Sequence | protein stability index (treatment: DMSO) | protein stability index (treatment: MLN4924 1 uM, 8 h)
70 | KKAWDDLKKYLEPRCPRMVLSLKE [FBXO3] | 2.78 ± 0.26 | 2.86 ± 0.17
71 | LADDHLIEVNGENVEDASHEEVVE [PDZK1] | 5.65 ± 0.1 | 5.54 ± 0.24
72 | QIMQGLEHPFLVNLWYSFQDEEDM [STK32A] | 2.19 ± 0.37 | 2.37 ± 0.36
73 | SKLVPAIQNAHKNSTGSGRGKKLM [TPRG1] | 4.6 ± 0.24 | 4.58 ± 0.16
74 | DQFDKDLPVYLKKDPAYFYGYVYF [DENND6A] | 2.46 ± 0.71 | 2.19 ± 0.59
75 | PARDYVVLRTWRTNLPKGACALLL [DLC1] | 2.47 ± 1.3 | 2.22 ± 0.4
76 | AWSQRSAAGRVCRPPGPAGTEQSR [CPOX] | 4.16 ± 0.22 | 4.29 ± 0.16
77 | HPVPLSFEPVKSFFKGLVEAVEST [TRIM14] | 2.6 ± 0.41 | 2.26 ± 0.42
78 | FHCLWDDSFPEGPERLHAIKEQLI [HDAC6] | 2.47 ± 0.26 | 2.41 ± 0.33
79 | QQHAEGSPEPGTPAAPTPESFTVH [DNAAF3] | 5.17 ± 0.24 | 5.27 ± 0.43
80 | ELSPLALGRFSLTPAEGDTEEDDG [CDC25B] | 5.44 ± 0.18 | 5.44 ± 0.43
81 | TCSSCLLRAPTISDLLNDQDLLDV [EDARADD] | 2.57 ± 0.29 | 2.56 ± 0.43
82 | DAILYYYQSGGRIRRPVNVPIDIF [KCNA3] | 2.2 ± 0.61 | 2.58 ± 0.76
83 | YCDLPQLFQLSCSSTQLNELLLFA [OR3A1] | 2.61 ± 0.36 | 2.64 ± 0.57
84 | SFCELHLKPHLEGAAFRDHQLLEP [TRIM29] | 2.87 ± 0.14 | 2.93 ± 0.087
85 | QVLSAKERHLVEIKQKLGMNLMNE [TPD52L1] | 3.04 ± 0.12 | 3.04 ± 0.13
86 | KRKREEEEEKEPLAVDSWWLDPGH [SERTAD1] | 4.64 ± 0.38 | 4.79 ± 0.15
87 | RRVLQGLEIELQSQLSMKASLENS [KRT16] | 2.8 ± 0.21 | 2.89 ± 0.4
88 | EMMRFIYTGRAPNLDKMADNLLAA [SPOPL] | 2.42 ± 0.29 | 2.01 ± 0.19
89 | YQSYFKTIEELQQKILCAKAENAR [KRT34] | 2.46 ± 0.33 | 2.86 ± 0.5
